Patent US20210292393A1 (published 2021)

B1: antibody 268 (antibody, V domains shown)
VH: QVQLQESGPGLVKPSQTLSLTCTVSGGSISSGSYYWSWIRQPAGKGLEWIGRIYTSGSTNYNPSLKSRVTISVDTSKNQFSLKLSSVTAADTAVYYCARELVGGLLGTIDYWGQGTLVTVSS
VL: DIQLTQSPSFLSASVGDRVTITCRASQGISSYLAWYQQKPGKAPKLLIYAASTLQSGVPSRFSGSGSGTEFTLTISSLQPEDFATYYCQQLNSYPYTFGQGTKLEIK
B2: antibody 287 (antibody, V domains shown)
VH: QLQLQESGPGLVKPSETLSLTCTVSGGSISSSSYYWGWIRQPPGKGLEWIGSIFYSGSTYYNPSLKSRVTIFVDTSKNQFSLKLSSVTAADTAVYYCARFDYQVVDLTGFDYWGQGTLVTVSS
VL: DIQMTQSPSSLSASVGDRVTITCRASQGIRNDLGWYQQKPGKAPKRLIYAASSLQSGVPSRFSGSGSGTEFTLTIRSLQPEDFATYYCLQYNSYPLTFGGGTKVEIK
B3: antibody 298 (antibody, V domains shown)
VH: EVQLVESGGGLVQPGGSLRLSCAASGFTVSSNYMSWVRQAPGKGLEWVSVIYSGGSTYYADSVKGRFTISRDNSKNTLYLQMNSLRAEDTAVYYCAREEGEWEKDYYGMDVWGQGTTVTVSS
VL: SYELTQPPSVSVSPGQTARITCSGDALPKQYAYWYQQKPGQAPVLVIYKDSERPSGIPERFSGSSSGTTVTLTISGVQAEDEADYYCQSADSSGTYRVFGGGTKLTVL
B4: antibody 302 (antibody, V domains shown)
VH: QVQLVQSGAEVRKPGASVKVSCKVSGYTLSELSMHWVRQAPGKGLEWMGGFDPEDGERMYAQKFQGRVTMTEDTSTDTAYMELSSLRSEDTAIYYCTTDLSYLWSGKLEPDYWYFALWGRGTLVTVSS
VL: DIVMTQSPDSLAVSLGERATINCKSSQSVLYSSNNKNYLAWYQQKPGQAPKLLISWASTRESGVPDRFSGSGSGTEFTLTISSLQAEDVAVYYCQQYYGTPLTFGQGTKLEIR
B5: antibody 308 (antibody, V domains shown)
VH: QLQLQESGPGLVKPSETLSLTCSVSGGSISSSSYHWGWIRQPPGKGLEWIGSIYYSGSTYYNPSLKSRVTISVDTSKNQFSLKLRSVTAADTAVYYCAGLRVVITFGGVIPKGGAFDIWGQGTMVTVSS
VL: QSALTQPASVSGSPGQSITISCTGTSSDVGGYNYVSWYQQHPGKAPKLMIYDVSNRPSGVSNRFSGSKSGNTASLTISGLQAEDEADYYCSSYTSSSTVVFGGGTKLTVL
B6: antibody 305 (antibody, V domains shown)
VH: QVQLVESGGGVVQPGRSLRLSCAASGFTFSSYAMHWVRQAPGKGLEWVAVISYDGSNKYYADSVKGRFTISRDNSKNTLYLQMNSLRAEDTAVYYCAREQTSYDYVWGTLGAYYYYGMDVWGQGTTVTVSS
VL: SSELTQDPAVSVALGQTVRITCQGDSLRSYYASWYQQKPGQAPVLVIYGKNNRPSGIPDRFSGSSSGNTASLTITGAQAEDEADYYCNSRDSSGNHLVFGGGTKLTVL
B7: antibody 272 (antibody, V domains shown)
VH: QVQLVQSGAEVKKPGASVKVSCKASGYTFTTYYMHWVRQAPGQGLEWMGIINPSGGSASYAQKFQGRVTMTRDTSTSTVYMELSSLRSEDTAVYYCARDHTLVNGDYEYYYGMDVWGQGTTVTVSS
VL: SYELTQPPSVSVSPGQTARITCSGDALPKQYAYWYQQKPGQAPVSVIYKDSERPSGIPERISGSSSGTTVTLTISGVQAEDEADYYCQSADSSGTYLVFGGGTKLTVL
B8: antibody 286 (antibody, V domains shown)
VH: QVHLVESGGGVVQPGKSLRLSCAGSGFIFSDFGMHWVRQSPGKGLEWVAVVSYDGSVTKYSDSFEGRFTISRDNSKNTLYLQMDSLRPDDTAIYYCAKGQGANLLHYWGKGILVTVSS
VL: DVVLTQSPLSLPVTLGQPASISCRSSESLVYTDGDTYLHWFHQRPGQSPRRLIYKVSNRDSGVPDRFSGSGSGTDFTLKISRVEAEDVGVYYCMQGTHWPFTFGPGTKVDIK

Molecular target: SARS-CoV-2 full length spike protein, V367F mutant (SARS-CoV-2, UniProt P0DTC2 14-1273)

| Binder | median fluorescence intensity, fold over isotype control [fold over isotype] |
| --- | --- |
| B1 | 8.9 |
| B2 | 60.9 |
| B3 | 35.7 |
| B4 | 26.5 |
| B5 | 33.4 |
| B6 | 41 |
| B7 | 40.4 |
| B8 | 28.2 |

Molecular target: SARS-CoV-2 full length spike protein, D614G mutant (SARS-CoV-2, UniProt P0DTC2 14-1273)

| Binder | median fluorescence intensity, fold over isotype control [fold over isotype] |
| --- | --- |
| B1 | 8.18 |
| B2 | 87.4 |
| B3 | 66.8 |
| B4 | 45.4 |
| B5 | 7.93 |
| B6 | 78.9 |
| B7 | 79.7 |
| B8 | 6.17 |
